Assays:
[1] = target: T1, human insulin receptor extracellular domain (HIR ECD) (human, UniProt P06213 28-956, limits assumed); test: ELISA, HIR ECD plated, detected with biotinylated anti-human IgG
T1 construct: extracellular domain; The ECD was plated on 96-well dishes for the ELISA

[2] = target: T1, human insulin receptor extracellular …; test: ELISA, HIR ECD plated on Nunc-Maxisorb wells, detected with biotinylated anti-human IgG
Experimental: (§1) The affinity of the fusion protein for the HIR extracellular domain (ECD) was determined with an ELISA. CHO cells permanently transfected with the HIR ECD were grown in serum free media (SFM), and the HIR ECD was purified with a wheat germ agglutinin affinity column, as previously described in Coloma et al. (2000) Pharm Res, 17:266-274. The HIR ECD was plated on Nunc-Maxisorb 96 well dishes and the binding of the HIR Ab, or the HIR Ab-ASA fusion protein, to the HIR ECD was detected with a biotinylated goat anti-human IgG (H+L) secondary antibody, followed by avidin and biotinylated peroxidase (Vector Labs, Burlingame, Calif.). […] The MW of the HIR Ab is 150 kDa, and the MW of the HIR Ab-ASA fusion protein is 288 kDa.

[3] = target: T1, human insulin receptor extracellular …; test: ELISA, HIR ECD plated; normalised for a MW of 150 kDa
Experimental: as §1

[4] = target: T1, human insulin receptor extracellular …; test: ELISA, HIR ECD plated (second experiment)
[5] = target: T1, human insulin receptor extracellular …; test: ELISA, HIR ECD plated; normalised for a MW of 288 kDa
Experimental: as §1

EC50 [1] | EC50 [2] | EC50 [3] | EC50 [4] | EC50 [5] | Binder
0.77 nM | 0.035 µg/mL | 0.23 nM | 0.25 nM | – | chimeric HIRMAb (chimeric monoclonal antibody against the human insulin receptor) (antibody, human IgG1, kappa, MW 150 kDa; also called HIR Ab; chimeric HIR Ab) heavy: not shown light: DIQMTQSPSSLSASLGERVSLTCRASQDIGGNLYWLQQGPDGTIKRLIYATSSLDSGVPKRFSGSRSGSDYSLTISSLESEDFVDYYCLQYSSSPWTFGGGTKMEIKRTVAAPSVFIFPPSDEQLKSGTASVVCLLNNFYPREAKVQWKVDNALQSGNSQESVTEQDSKDSTYSLSSTLTLSKADYEKHKVYACEVTHQGLSSPVTKSFNRGEC
0.81 nM | – | – | – | – | HIR Ab-GUSB fusion protein (human GUSB fused to the carboxyl terminus of the HIR Ab heavy chain) (antibody, human IgG1, kappa, range 23-633; also called HIRMAb-GUSB fusion protein; pCD-HC-GUSB plus pCD-LC product) heavy: not shown light: DIQMTQSPSSLSASLGERVSLTCRASQDIGGNLYWLQQGPDGTIKRLIYATSSLDSGVPKRFSGSRSGSDYSLTISSLESEDFVDYYCLQYSSSPWTFGGGTKMEIKRTVAAPSVFIFPPSDEQLKSGTASVVCLLNNFYPREAKVQWKVDNALQSGNSQESVTEQDSKDSTYSLSSTLTLSKADYEKHKVYACEVTHQGLSSPVTKSFNRGEC
– | 0.106 µg/mL | – | – | 0.34 nM | HIRMAb-ASA fusion protein (HIR Ab fused at the carboxyl terminus of each heavy chain to mature human arylsulfatase A) (antibody, human IgG1, kappa, Cys-515 of SEQ ID NO 10 undergoes post-translational conversion to formylglycine (inferred by the filing from retained enzyme activity), Antibody-enzyme fusion made in CHO cells and purified on protein A. Hetero-tetramer with an estimated MW of 288 kDa; also called HIR Ab-ASA fusion protein; HIR Ab-ASA fusion antibody) heavy: not shown light: DIQMTQSPSSLSASLGERVSLTCRASQDIGGNLYWLQQGPDGTIKRLIYATSSLDSGVPKRFSGSRSGSDYSLTISSLESEDFVDYYCLQYSSSPWTFGGGTKMEIKRTVAAPSVFIFPPSDEQLKSGTASVVCLLNNFYPREAKVQWKVDNALQSGNSQESVTEQDSKDSTYSLSSTLTLSKADYEKHKVYACEVTHQGLSSPVTKSFNRGEC

Source: patent US20150064184A1 (ARMAGEN TECHNOLOGIES, published 2015)
